Measured values reported in patent US20250115669A1, “FGFR1/KLB Targeting Agonistic Antigen-Binding Proteins and Conjugates Thereof with GLP-1R Agonistic Peptides” (SANOFI, priority 2020, published 2025).

What was measured:
human beta-Klotho = biological target: T1, human beta-Klotho (Homo sapiens, UniProt Q86Z14); experiment: SPR analysis of the active fraction of stressed antibodies; format: binding; details: 21 days
T1 sequence (Q86Z14 1-1044): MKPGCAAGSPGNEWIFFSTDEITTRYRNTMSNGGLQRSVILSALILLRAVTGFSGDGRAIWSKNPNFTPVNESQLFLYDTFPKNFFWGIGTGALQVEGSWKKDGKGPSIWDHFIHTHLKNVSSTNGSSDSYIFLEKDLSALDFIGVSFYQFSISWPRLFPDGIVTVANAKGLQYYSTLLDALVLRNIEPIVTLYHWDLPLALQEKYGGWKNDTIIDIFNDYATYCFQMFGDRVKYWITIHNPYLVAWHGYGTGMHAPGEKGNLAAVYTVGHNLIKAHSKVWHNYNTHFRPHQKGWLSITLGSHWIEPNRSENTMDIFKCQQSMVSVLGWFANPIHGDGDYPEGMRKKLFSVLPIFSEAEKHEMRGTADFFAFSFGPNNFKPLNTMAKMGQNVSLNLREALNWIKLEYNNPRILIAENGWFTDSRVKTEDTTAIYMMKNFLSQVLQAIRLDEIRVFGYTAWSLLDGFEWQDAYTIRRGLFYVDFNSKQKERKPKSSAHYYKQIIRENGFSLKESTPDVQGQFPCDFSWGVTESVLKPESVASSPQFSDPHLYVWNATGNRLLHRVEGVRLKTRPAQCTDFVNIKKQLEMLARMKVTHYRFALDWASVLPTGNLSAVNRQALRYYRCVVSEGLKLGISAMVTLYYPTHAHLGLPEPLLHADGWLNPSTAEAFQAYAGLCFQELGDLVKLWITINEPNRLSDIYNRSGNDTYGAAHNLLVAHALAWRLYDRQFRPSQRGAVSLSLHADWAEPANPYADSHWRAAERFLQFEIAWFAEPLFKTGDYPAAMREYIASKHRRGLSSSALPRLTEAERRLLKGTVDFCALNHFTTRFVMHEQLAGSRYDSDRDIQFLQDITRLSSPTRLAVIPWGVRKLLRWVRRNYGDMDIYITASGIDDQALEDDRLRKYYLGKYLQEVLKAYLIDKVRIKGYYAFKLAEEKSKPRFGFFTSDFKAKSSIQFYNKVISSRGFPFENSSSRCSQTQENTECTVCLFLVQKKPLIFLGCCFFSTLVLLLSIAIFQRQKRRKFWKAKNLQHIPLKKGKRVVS
Protocol: Analysis of the active fraction of stressed antibodies was performed by SPR using the same Fc capture assay set up as described above for the affinity determination. In this case the association and dissociation times for human beta-Klotho were set to 240 sec and 300 sec, respectively. The active fraction of the samples was calculated as the ratio of binding signal for human beta-Klotho and the Fc capture signal of the antibody, normalized to the active fraction of the unstressed control samples. Mean values from three experiments were calculated.

[1] = Hydrophobic interaction chromatography (HIC); format: physicochemical
Protocol: The analysis was run at a flow rate of 1 mL/min with detection at 280 nm. 5 μg of undiluted protein sample were applied onto the column. Gradient elution was from 15% B to 85% B in 7 min followed by 1 min to 100% B, then 1 min to 15% B and then 3 minutes equilibration at 15% B. Buffer A was composed of 1.5 mol/L ammonium sulfate, 25 mmol/L sodium phosphate pH 7.0. Buffer B was composed of 25 mmol/L sodium phosphate pH 7.0. Data evaluation was performed either using LabSolutions software v5.85 (Shimadzu) or Chromeleon 7 software (Thermo Fisher Scientific).

[2] = Nano differential scanning fluorimetry (nanoDSF), Tonset and Tm; format: physicochemical
Protocol: Onset temperatures (Tonset) and melting points (Tm) of protein denaturation were determined using nano differential scanning fluorimetry (nanoDSF). Samples were diluted in formulation buffer to a final concentration of 0.5 mg/mL and loaded into nanoDSF capillaries in duplicates (Nanotemper Technologies). All measurements were done using a Prometheus NT.plex nanoDSF device (Nanotemper Technologies). Heating rate was 1° C. per minute from 20° C. to 95° C. Data were recorded using PR.ThermControl Software v2.3.1 (Nanotemper Technologies) and analyzed using PR.Stability Analysis Software v1.0.3 (Nanotemper Technologies).

[3] = Dynamic light scattering (DLS) and diffusion interaction parameter (kD); format: physicochemical
Protocol: Dynamic light scattering (DLS) was performed using a DynaPro Plate Reader (Wyatt Technology). The samples were measured in 384 well assay plates (Corning) at 25° C. Data were evaluated by cumulant fitting using Dynamics Software version 7.7.0.125 (Wyatt Technology).
Colloidal stability of the samples was assessed by measuring the diffusion interaction parameter (kD) at 20° C. using a DynaPro Plate Reader (Wyatt Technology). Before the measurements the samples were buffer exchanged against 5 L of 10 mmol/L Histidine pH 6.0 by dialysis for 20 h with one buffer change using 1 mL Float-A-Lyzer G2 devices with 3.5-5 kDa cut-off (Spectrum Labs). A dilution series from 1 to 4.5 mg/mL, in 0.5 mg/mL increments, was prepared in 10 mmol/L Histidine pH 6.0 and measured in 384 well assay plates (Corning).

[4] = Intact mass spectrometry (IMS); format: physicochemical; details: for intact mass Identity confirmed / intact mass Peak intensity post stress: 21 days
Protocol: Protein integrity was analyzed by LC-MS. […] Reversed phase (RP) chromatography was done using a PLRP-S 1000A 5 μm, 50×2.1 mm (Agilent) with a guard column PLRP-S 300A 5 μm, 3×5 mm (Agilent) at 200 μL/min and 80° C. column temperature. Eluents were buffer A containing LC water and 0.1% formic acid as well as buffer B containing 90% acetonitrile, 10% LC water and 0.1% formic acid. 1 μg of protein was injected onto the column and eluted using linear gradient from 0 to 17 minutes with increasing acetonitrile concentration. Data was analyzed using MassHunter Bioconfirm B.06 (Agilent). Molecular masses were calculated based on the amino acid sequences of the proteins using GPMAW software version 10 (Lighthouse data).

Substance | SPR rel. active fraction (human beta-Klotho; pH 5, 40° C.) | SPR rel. active fraction (human beta-Klotho; pH 6, 40° C.) | SPR rel. active fraction (human beta-Klotho; pH 8, 40° C.) | Hydrophobic variance HIC Number of peaks [1] | HIC Number of peaks ([1]; pH 5, 40° C., d 21) | HIC Number of peaks ([1]; pH 5, d 0) | HIC Number of peaks ([1]; pH 6, 40° C., d 21) | HIC Number of peaks ([1]; pH 6, d 0) | HIC Number of peaks ([1]; pH 8, 40° C., d 21) | HIC Number of peaks ([1]; pH 8, d 0) | Thermal stability DSF Tm [2] | Thermal stability DSF Tonset [2] | DSF Tm ([2]; pH 5, 40° C., d 21) | DSF Tonset ([2]; pH 5, 40° C., d 21) | DSF Tm ([2]; pH 5, d 0) | DSF Tonset ([2]; pH 5, d 0) | DSF Tm ([2]; pH 6, 40° C., d 21) | DSF Tonset ([2]; pH 6, 40° C., d 21) | DSF Tm ([2]; pH 6, d 0) | DSF Tonset ([2]; pH 6, d 0) | other results
Ab0335: IgG4 PE; 16H7 VL (N25S, D49S, D50A, D91E, N93E); 16H7 VH (M34V, I83T, D109E); HC SEQ ID NO: 39, LC SEQ ID NO: 46 | 93% | 92% | 73% | 1 | 1 | 1 | 1 | 1 | 1 | 1 | 63 °C | 52 °C | 62 °C | 45 °C | 61 °C | 51 °C | 62 °C | 50 °C | 63 °C | 52 °C | DSF Tm ([2]; pH 8, 40° C., d 21): 68 °C; DSF Tonset ([2]; pH 8, 40° C., d 21): 57 °C; DSF Tm ([2]; pH 8, d 0): 68 °C; DSF Tonset ([2]; pH 8, d 0): 57 °C; Homogeneity DLS Hydrodynamic radius [3]: 5.2 nm; DLS Hydrodynamic radius ([3]; pH 5, 40° C., d 21): 5.2 nm; DLS Hydrodynamic radius ([3]; pH 5, d 0): 5.3 nm; DLS Hydrodynamic radius ([3]; pH 6, 40° C., d 21): 5.1 nm; DLS Hydrodynamic radius ([3]; pH 6, d 0): 5.2 nm; DLS Hydrodynamic radius ([3]; pH 8, 40° C., d 21): 6.1 nm; DLS Hydrodynamic radius ([3]; pH 8, d 0): 5.3 nm; Identity, correct pairing, intact mass, Identity confirmed [4]: Yes; intact mass Identity confirmed ([4]; pH 5, 40° C.): Yes; intact mass Peak intensity post stress ([4]; pH 5, 40° C.): 84%; intact mass Identity confirmed ([4]; pH 6, 40° C.): Yes; intact mass Peak intensity post stress ([4]; pH 6, 40° C.): 85%; intact mass Identity confirmed ([4]; pH 8, 40° C.): Yes; intact mass Peak intensity post stress ([4]; pH 8, 40° C.): 53%
Ab0430: IgG1 NNAS; 16H7 VL (N25S, D49E, D50E, D91E, N93E); 16H7 VH (M34V, I83T, D109E); HC SEQ ID NO: 43, LC SEQ ID NO: 50 | 94% | 92% | 75% | 1 | 1 | 1 | 1 | 1 | 1 | 1 | 62 °C | 45 °C | 62 °C | 46 °C | 62 °C | 45 °C | 62 °C | 46 °C | 62 °C | 45 °C | DSF Tm ([2]; pH 8, 40° C., d 21): 66 °C; DSF Tonset ([2]; pH 8, 40° C., d 21): 56 °C; DSF Tm ([2]; pH 8, d 0): 66 °C; DSF Tonset ([2]; pH 8, d 0): 56 °C; Homogeneity DLS Hydrodynamic radius [3]: 5.4 nm; DLS Hydrodynamic radius ([3]; pH 5, 40° C., d 21): 5.4 nm; DLS Hydrodynamic radius ([3]; pH 5, d 0): 5.4 nm; DLS Hydrodynamic radius ([3]; pH 6, 40° C., d 21): 5.4 nm; DLS Hydrodynamic radius ([3]; pH 6, d 0): 5.4 nm; DLS Hydrodynamic radius ([3]; pH 8, 40° C., d 21): 6.3 nm; DLS Hydrodynamic radius ([3]; pH 8, d 0): 5.4 nm; Identity, correct pairing, intact mass, Identity confirmed [4]: Yes; intact mass Identity confirmed ([4]; pH 5, 40° C.): Yes; intact mass Peak intensity post stress ([4]; pH 5, 40° C.): 80%; intact mass Identity confirmed ([4]; pH 6, 40° C.): Yes; intact mass Peak intensity post stress ([4]; pH 6, 40° C.): 81%; intact mass Identity confirmed ([4]; pH 8, 40° C.): Yes; intact mass Peak intensity post stress ([4]; pH 8, 40° C.): 54%
